Test results from patent US20010010923A1, “MODIFIED CARBOXYPEPTIDASE” (priority 1997, published 2001).
“Also recorded” adds a separate entry of the source. Marks after values point to notes of the source that are not given here.

Tests used:
[1] = Transpeptidation of FA-Ala-OBzl with H-Leu-NH2, Table 3; format: biochemical; details: FA-Ala-OBzl 0.2 mM, pH 7.5; for fa: H-Leu-NH2; for KN(app): nucleophile H-Leu-NH2 concentration at which fa is half of maximum
Experimental: (§1) Transamidation reactions were carried out generally as described in PCT Application WO 95/20039. In general, the method included dissolving the nucleophile (H-Leu-NH2, unless otherwise indicated) in 50 mM HEPES, 5 mM EDTA and adjusting the pH to 7.5, 5 μl of peptide substrate (8 mM Bz-G-A-R-A-R-A-OH, unless otherwise indicated, in methanol) was added to 190 μl nucleophile solution followed by 5 μl enzyme, resulting in a substrate concentration of 0.2 mM.
(§2) During the reaction, 20 μl aliquots were removed from the reaction mixture and added to 50 μl 1% trifluoroacetic acid to quench the reaction. The reactant composition was determined by HPLC using a Waters HPLC equipped with a C-18 Waters Novapac 4μ reverse phase column and various gradients of acetonitrile in 0.1% trifluoroacetic acid. The separation was monitored at 254 nm allowing the direct quantification of the products from the integrated peak areas. The composition of the reaction mixture was determined at least twvice during the reaction, the first when 20-50% (preferably 35%) of the substrate had been consumed in the reaction and the second time when 50-90% (preferably 80%) of the peptide substrate had been consumed.
(§3) The fraction of aminolysis (fa) was expressed as the ratio between the formed aminolysis product and the sum of all products formed. Unconsumed substrate was disregarded in the calculations.
Site specific mutagenesis was performed as described in Example 1 to produce the specific substitution mutants described below. Transamidation reactions were performed as described for Example 1.
In table 3, below, KN(app) represents the nucleophile concentration at which fa is half of the maximum value (a measure for the dissociation constant of the nucleophile). famax is the highest possible fa obtained at saturation of the enzyme with the nucleophile.
KN(app) indicates the concentration at which famax/2 is reached and thus describes the apparent binding constant of the nucleophile. Because the competing hydrolysis reaction is thought to occur while the leaving group remains attached to the to the acyl-enzyme intermediate, a low KN(app) is preferred.

[2] = Transpeptidation of FA-Ala-Xaa-OH with H-Gly-NH2, Table 2; format: biochemical; details: for Fraction of aminolysis (fa), P1' Ala: FA-Ala-Ala-OH 0.2 mM; for Fraction of aminolysis (fa), P1' Ala / Fraction of aminolysis (fa), P1' Leu / Fraction of aminolysis (fa), P1' Met / Fraction of aminolysis (fa), P1' Phe / Fraction of aminolysis (fa), P1' Val: 1.9 M H-Gly-NH2, pH 7.5, room temperature; for Fraction of aminolysis (fa), P1' Leu: FA-Ala-Leu-OH 0.2 mM; for Fraction of aminolysis (fa), P1' Met: FA-Ala-Met-OH 0.2 mM; for Fraction of aminolysis (fa), P1' Phe: FA-Ala-Phe-OH 0.2 mM; for Fraction of aminolysis (fa), P1' Val: FA-Ala-Val-OH 0.2 mM; for fraction of aminolysis compared to wild type, in words: larger, hydrophobic leaving group such as leucine
Experimental: as §1, §2, §3
Site specific mutagenesis was performed as described for Example 1 to produce the S1 mutants used below.
Transamidation reactions were performed as described for Example 1.

Row | Molecule | fa [1] | KN(app) [1] | Fraction of aminolysis (fa), P1' Ala [2] | Fraction of aminolysis (fa), P1' Leu [2] | Fraction of aminolysis (fa), P1' Met [2] | Fraction of aminolysis (fa), P1' Phe [2] | Fraction of aminolysis (fa), P1' Val [2] | fraction of aminolysis compared to wild type, in words [2] | fraction of aminolysis compared to wild type, in words ([2]; listed as M3981)
1 | M398V: carboxypeptidase Y S1' mutant, substitution M398V (protein, UniProt P00729 112-532, looked up, variant M398V) Carboxypeptidase Y: KIKDPKILGIDPNVTQYTGYLDVEDEDKHFFFWTFESRNDPAKDPVILWLNGGPGCSSLTGLFFELGPSSIGPDLKPIGNPYSWNSNATVIFLDQPVNVGFSYSGSSGVSNTVAAGKDVYNFLELFFDQFPEYVNKGQDFHIAGESYAGHYIPVFASEILSHKDRNFNLTSVLIGNGLTDPLTQYNYYEPMACGEGGEPSVLPSEECSAMEDSLERCLGLIESCYDSQSVWSCVPATIYCNNAQLAPYQRTGRNVYDIRKDCEGGNLCYPTLQDIDDYLNQDYVKEAVGAEVDHYESCNFDINRNFLFAGDWMKPYHTAVTDLLNQDLPILVYAGDKDFICNWLGNKAWTDVLPWKYDEEFASQKVRNWTASITDEVAGEVKSYKHFTYLRVFNGGHVVPFDVPENALSMVNEWIHGGFSL | 0.87^a | 1.43^b mM | 0.93 | 0.91 | 0.83 | 0.86 | 0.81 | improvement in fraction of aminolysis obtained; also recorded: most dramatic improvement; also recorded: enhanced transpeptidation | 
2 | T60D + M398L: carboxypeptidase Y double substitution mutant T60D + M398L (protein, UniProt P00729 112-532, looked up, variant T60D M398L) Carboxypeptidase Y: KIKDPKILGIDPNVTQYTGYLDVEDEDKHFFFWTFESRNDPAKDPVILWLNGGPGCSSLDGLFFELGPSSIGPDLKPIGNPYSWNSNATVIFLDQPVNVGFSYSGSSGVSNTVAAGKDVYNFLELFFDQFPEYVNKGQDFHIAGESYAGHYIPVFASEILSHKDRNFNLTSVLIGNGLTDPLTQYNYYEPMACGEGGEPSVLPSEECSAMEDSLERCLGLIESCYDSQSVWSCVPATIYCNNAQLAPYQRTGRNVYDIRKDCEGGNLCYPTLQDIDDYLNQDYVKEAVGAEVDHYESCNFDINRNFLFAGDWMKPYHTAVTDLLNQDLPILVYAGDKDFICNWLGNKAWTDVLPWKYDEEFASQKVRNWTASITDEVAGEVKSYKHFTYLRVFNGGHLVPFDVPENALSMVNEWIHGGFSL | 1.0^a | 2.0^b mM | 0.89 | 0.89 | 0.66 | 0.62 | 0.90 | further improved the fraction of aminolysis | 
3 | M398I: carboxypeptidase Y S1' mutant, substitution M398I (protein, UniProt P00729 112-532, looked up, variant M398I) Carboxypeptidase Y: KIKDPKILGIDPNVTQYTGYLDVEDEDKHFFFWTFESRNDPAKDPVILWLNGGPGCSSLTGLFFELGPSSIGPDLKPIGNPYSWNSNATVIFLDQPVNVGFSYSGSSGVSNTVAAGKDVYNFLELFFDQFPEYVNKGQDFHIAGESYAGHYIPVFASEILSHKDRNFNLTSVLIGNGLTDPLTQYNYYEPMACGEGGEPSVLPSEECSAMEDSLERCLGLIESCYDSQSVWSCVPATIYCNNAQLAPYQRTGRNVYDIRKDCEGGNLCYPTLQDIDDYLNQDYVKEAVGAEVDHYESCNFDINRNFLFAGDWMKPYHTAVTDLLNQDLPILVYAGDKDFICNWLGNKAWTDVLPWKYDEEFASQKVRNWTASITDEVAGEVKSYKHFTYLRVFNGGHIVPFDVPENALSMVNEWIHGGFSL | 0.94^a | 0.91^b mM | 0.93 | 0.91 | 0.83 | 0.75 | 0.87 | improvement in fraction of aminolysis obtained; also recorded: most dramatic improvement | enhanced transpeptidation
4 | T60A + M398Y: carboxypeptidase Y double substitution mutant T60A + M398Y (protein, UniProt P00729 112-532, looked up, variant T60A M398Y) Carboxypeptidase Y: KIKDPKILGIDPNVTQYTGYLDVEDEDKHFFFWTFESRNDPAKDPVILWLNGGPGCSSLAGLFFELGPSSIGPDLKPIGNPYSWNSNATVIFLDQPVNVGFSYSGSSGVSNTVAAGKDVYNFLELFFDQFPEYVNKGQDFHIAGESYAGHYIPVFASEILSHKDRNFNLTSVLIGNGLTDPLTQYNYYEPMACGEGGEPSVLPSEECSAMEDSLERCLGLIESCYDSQSVWSCVPATIYCNNAQLAPYQRTGRNVYDIRKDCEGGNLCYPTLQDIDDYLNQDYVKEAVGAEVDHYESCNFDINRNFLFAGDWMKPYHTAVTDLLNQDLPILVYAGDKDFICNWLGNKAWTDVLPWKYDEEFASQKVRNWTASITDEVAGEVKSYKHFTYLRVFNGGHYVPFDVPENALSMVNEWIHGGFSL | 0.97^a | 9.1^b mM | 0.80 | 0.83 | 0.83 | 0.81 | 0.81 | further improved the fraction of aminolysis | 
5 | T60Y + M398L: carboxypeptidase Y double substitution mutant T60Y + M398L (protein, UniProt P00729 112-532, looked up, variant T60Y M398L) Carboxypeptidase Y: KIKDPKILGIDPNVTQYTGYLDVEDEDKHFFFWTFESRNDPAKDPVILWLNGGPGCSSLYGLFFELGPSSIGPDLKPIGNPYSWNSNATVIFLDQPVNVGFSYSGSSGVSNTVAAGKDVYNFLELFFDQFPEYVNKGQDFHIAGESYAGHYIPVFASEILSHKDRNFNLTSVLIGNGLTDPLTQYNYYEPMACGEGGEPSVLPSEECSAMEDSLERCLGLIESCYDSQSVWSCVPATIYCNNAQLAPYQRTGRNVYDIRKDCEGGNLCYPTLQDIDDYLNQDYVKEAVGAEVDHYESCNFDINRNFLFAGDWMKPYHTAVTDLLNQDLPILVYAGDKDFICNWLGNKAWTDVLPWKYDEEFASQKVRNWTASITDEVAGEVKSYKHFTYLRVFNGGHLVPFDVPENALSMVNEWIHGGFSL | 1.0^a | 1.7^c mM | 0.92 | 0.95 | 0.93 | 0.87 | 0.89 | further improved the fraction of aminolysis | 
6 | T60A + M398L: carboxypeptidase Y double substitution mutant T60A + M398L (protein, UniProt P00729 112-532, looked up, variant T60A M398L) Carboxypeptidase Y: KIKDPKILGIDPNVTQYTGYLDVEDEDKHFFFWTFESRNDPAKDPVILWLNGGPGCSSLAGLFFELGPSSIGPDLKPIGNPYSWNSNATVIFLDQPVNVGFSYSGSSGVSNTVAAGKDVYNFLELFFDQFPEYVNKGQDFHIAGESYAGHYIPVFASEILSHKDRNFNLTSVLIGNGLTDPLTQYNYYEPMACGEGGEPSVLPSEECSAMEDSLERCLGLIESCYDSQSVWSCVPATIYCNNAQLAPYQRTGRNVYDIRKDCEGGNLCYPTLQDIDDYLNQDYVKEAVGAEVDHYESCNFDINRNFLFAGDWMKPYHTAVTDLLNQDLPILVYAGDKDFICNWLGNKAWTDVLPWKYDEEFASQKVRNWTASITDEVAGEVKSYKHFTYLRVFNGGHLVPFDVPENALSMVNEWIHGGFSL | 0.99^a | 1.0^b mM | 0.92 | 0.94 | 0.72 | 0.52 | 0.91 | further improved the fraction of aminolysis | 
